Laboratory results published in patent US20200199241A1 (Chugai, published 2020).
Positions count from the first letter of the chain named. Names and notes keep the numbering of the source.

T1: human FcγRIIa type R (human, UniProt P12318 36-217)
T1 construct: also called FcγRIIaR; FcγRIIa(R)
T1 chain: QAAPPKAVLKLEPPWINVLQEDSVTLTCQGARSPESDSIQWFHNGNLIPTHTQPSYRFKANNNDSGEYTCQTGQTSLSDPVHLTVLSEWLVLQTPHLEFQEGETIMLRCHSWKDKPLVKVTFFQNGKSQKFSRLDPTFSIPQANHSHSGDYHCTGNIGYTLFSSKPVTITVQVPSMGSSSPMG

T2: human FcγRIIb (human, UniProt P31994 43-217, limits assumed)
T2 construct: also called FcγIIB
T2 sequence: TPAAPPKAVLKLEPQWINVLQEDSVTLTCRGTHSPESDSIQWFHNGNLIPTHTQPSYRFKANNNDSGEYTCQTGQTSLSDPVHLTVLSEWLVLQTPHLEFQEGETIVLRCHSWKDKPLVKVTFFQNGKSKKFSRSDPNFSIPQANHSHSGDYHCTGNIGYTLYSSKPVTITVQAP

T3: human FcγRIIa type H (human, UniProt P12318 36-217)
T3 construct: also called FcγRIIaH; FcγRIIa(H)
T3 sequence: T1 chain with R133H

T4: FcγRIIb (human, UniProt P31994 43-217, limits assumed)
T4 construct: also called FcγIIB; CD32
T4 sequence: T2 sequence

T5: FcγRIIa type R (human, UniProt P12318 36-217)
T5 construct: also called FcγRIIaR; FcγRIIa(R)
T5 chain: T1 chain

T6: FcγRIIa type H (human, UniProt P12318 36-217)
T6 construct: also called FcγRIIaH; FcγRIIa(H)
T6 sequence: T1 chain with R133H

B1: IL6R-2B002/IL6R-L (antibody, human IgG1)
heavy: QVQLQESGPGLVKPSETLSLTCAVSGHSISHDHAWSWVRQPPGEGLEWIGFISYSGITNYNPSLQGRVTISRDNSKNTLYLQMNSLRAEDTAVYYCARSLARTTAMDYWGEGTLVTVSSASTKGPSVFPLAPSSKSTSGGTAALGCLVKDYFPEPVTVSWNSGALTSGVHTFPAVLQSSGLYSLSSVVTVPSSSLGTQTYICNVNHKPSNTKVDKKVEPKSCDKTHTCPPCPAPDLLGGDSVFLFPPKPKDTLMISRTPEVTCVVVDVSHEDPEVKFNWYVDGVEVHNAKTKPREEQYNSTYRVVSVLTVLHQDWLNGKEYKCKVSNKALPAPIEKTISKAKGQPREPQVYTLPPSRDELTKNQVSLTCLVKGFYPSDIAVEWESNGQPENNYKTTPPVLDSDGSFFLYSKLTVDKSRWQQGNVFSCSVMHEALHNHYTQESLSLSP
light: DIQMTQSPSSLSASVGDRVTITCRASQDISSYLNWYQQKPGKAPKLLIYYTSRLHSGVPSRFSGSGSGTDFTFTISSLQPEDIATYYCQQGNTLPYTFGQGTKVEIK
notes: Alteration introduced into IL6R-B3; also called P238D/E233D
B2: IL6R-BP078/IL6R-L (antibody, human IgG1)
heavy: B1 heavy with D235E, A332M
light: B1 light
notes: Alteration introduced into IL6R-B3; also called P238D/A330M
B3: IL6R-BP112/IL6R-L (antibody, human IgG1)
heavy: B1 heavy with D235E, P273G
light: B1 light
notes: Alteration introduced into IL6R-B3; also called P238D/P271G
B4: IL6R-BP117/IL6R-L (antibody, human IgG1)
heavy: B1 heavy with D235E, K328D
light: B1 light
notes: Alteration introduced into IL6R-B3; also called P238D/K326D
B5: IL6R-BP120/IL6R-L (antibody, human IgG1)
heavy: B1 heavy with D235E, K328E
light: B1 light
notes: Alteration introduced into IL6R-B3; also called P238D/K326E
B6: IL6R-BP126/IL6R-L (antibody, human IgG1)
heavy: B1 heavy with D235E, K328L
light: B1 light
notes: Alteration introduced into IL6R-B3; also called P238D/K326L
B7: IL6R-BP136/IL6R-L (antibody, human IgG1)
heavy: B1 heavy with D235E, K328A
light: B1 light
notes: Alteration introduced into IL6R-B3; also called P238D/K326A
B8: IL6R-BP142/IL6R-L (antibody, human IgG1)
heavy: B1 heavy with D235E, K328N
light: B1 light
notes: Alteration introduced into IL6R-B3; also called P238D/K326N
B9: IL6R-BP911/IL6R-L (antibody, human IgG1)
heavy: B1 heavy with D235E, A332K
light: B1 light
notes: Alteration introduced into IL6R-B3; also called P238D/A330K
B10: IL6R-BP198/IL6R-L (antibody, human IgG1)
heavy: B1 heavy with L236Y, H270D, P273G, K328A, A332K
light: B1 light
notes: Anti-IL-6R human IgG1 variant; copies: 2 + 2
B11: IL6R-BP207/IL6R-L (antibody, human IgG1)
heavy: B1 heavy with A332R
light: B1 light
notes: as for B10

Target: T1, human FcγRIIa type R
Assay: SPR (Biacore), binding amount relative to IL6R-BF648/IL6R-L = 100

Point of comparison: B8, relative binding 103. Against it:
- B1 — the same, 103
- B2 — lower, 101
- B3 — higher, 340
- B4 — higher, 166
- B5 — higher, 175
- B6 — higher, 167
- B7 — higher, 159
- B9 — lower, 101

These binders were tested against T7, human FcγRIIIa type V (human, UniProt P08637 17-208, limits assumed) in the same assay as above.
T7 construct: also called FcγRIIIaV; FcγRIIIa(V)
T7 sequence (P08637 other isoform, or with tags, fused parts or gaps limits assumed): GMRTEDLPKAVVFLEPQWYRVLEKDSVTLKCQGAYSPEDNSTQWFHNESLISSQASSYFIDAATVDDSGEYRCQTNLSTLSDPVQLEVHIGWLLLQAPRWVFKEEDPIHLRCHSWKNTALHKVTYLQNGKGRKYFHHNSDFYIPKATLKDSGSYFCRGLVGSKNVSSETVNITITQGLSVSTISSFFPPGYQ

Point of comparison: B1, relative binding 147. Against it:
- B2 — lower, 91

These binders were tested against T8, human FcγRIa (human, UniProt P12314 16-292, limits assumed) in the same assay as above.
T8 construct: also called CD64
T8 sequence (P12314 16-292 limits assumed): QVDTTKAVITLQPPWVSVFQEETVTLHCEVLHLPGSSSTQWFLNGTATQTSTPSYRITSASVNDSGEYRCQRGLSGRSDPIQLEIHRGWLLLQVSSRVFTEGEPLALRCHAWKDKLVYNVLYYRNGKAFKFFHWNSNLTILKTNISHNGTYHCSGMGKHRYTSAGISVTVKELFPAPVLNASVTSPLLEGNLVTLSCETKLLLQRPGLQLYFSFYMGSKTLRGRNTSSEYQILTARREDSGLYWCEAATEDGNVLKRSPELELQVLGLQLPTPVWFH

Point of comparison: B5, relative binding 125. Against it:
- B1 — lower, 118
- B3 — lower, 119
- B4 — lower, 124
- B6 — lower, 113
- B7 — lower, 117
- B8 — lower, 98
- B9 — lower, 52

Each binder was assayed against T2, human FcγRIIb in the same assay as above.

Point of comparison: B8, relative binding 106. Against it:
- B3 — higher, 157
- B4 — higher, 118
- B5 — higher, 114
- B6 — lower, 103
- B7 — higher, 119
- B9 — higher, 119

What follows are binders tested against T3, human FcγRIIa type H in the same assay as above.

Point of comparison: B1, relative binding 147. Against it:
- B2 — lower, 89
- B3 — lower, 113
- B4 — lower, 96
- B6 — lower, 132
- B7 — lower, 103
- B8 — lower, 97
- B9 — lower, 108

Each binder was assayed against T4, FcγRIIb (assay: ratio of SPR KD values, parent IL6R-B3/IL6R-L).

Point of comparison: B10, “KD(IIb) of the parent polypeptide/KD(IIb) of altered polypeptide” value 15.7 fold. Against it:
- B11 — lower, 3.7 fold

Each binder was assayed against T4, FcγRIIb (assay: SPR (Biacore), method of Example 14).
From the text: (§1) Furthermore, KD(IIaR)/KD(IIb) and KD(IIaH)/KD(IIb) in the table respectively represent the value obtained by dividing the KD value of each variant for FcγRIIaR by the KD value of each variant for FcγRIIb, and the value obtained by dividing the KD value of each variant for FcγRIIaH by the KD value of each variant for FcγRIIb. KD(IIb) of the parent polypeptide/KD(IIb) of the altered polypeptide refers to the value obtained by dividing the KD value of the parent polypeptide for FcγRIIb by the KD value of each variant for FcγRIIb.

Point of comparison: B10, Kd 200 nM. Against it:
- B11 — 4.2-fold higher, 840 nM

Target: T5, FcγRIIa type R
Assay: SPR (Biacore), method of Example 14
From the text: as §1

B11 was tested, and the Kd was 19 µM.

What follows are binders tested against T6, FcγRIIa type H (assay: SPR (Biacore), method of Example 14).
From the text: as §1

Point of comparison: B11, Kd 29 µM. Against it:
- B10 — within 1.5-fold, 20 µM

Each binder was assayed against T9, FcγRIIIa type V (human, UniProt P08637 17-208, limits assumed) (assay: SPR (Biacore), method of Example 14).
T9 construct: also called FcγRIIIaV; FcγRIIIa(V)
T9 sequence (P08637 17-208 F176V limits assumed): as the sequence (P08637 other isoform, or with tags, fused parts or gaps limits assumed) above, with S179A counted along it
From the text: as §1

Point of comparison: B10, Kd 44 µM. Against it:
- B11 — within 1.5-fold, 65 µM

The binders below were run against T10, FcγRIa (human, UniProt P12314 16-292, limits assumed) (assay: SPR (Biacore), method of Example 14).
T10 construct: also called CD64
T10 sequence (P12314 16-292 limits assumed): as the sequence (P12314 16-292 limits assumed) above
From the text: as §1

Point of comparison: B10, Kd 11 nM. Against it:
- B11 — 2-fold higher, 22 nM
